{"source": "patent US20150175707", "proteins": {"B1": {"name": "Fc-RGY (IgG1m(f) Fc fragment with E345R, E430G and S440Y) (protein)", "chain": "EPKSCDKTHTCPPCPAPELLGGPSVFLFPPKPKDTLMISRTPEVTCVVVDVSHEDPEVKFNWYVDGVEVHNAKTKPREEQYNSTYRVVSVLTVLHQDWLNGKEYKCKVSNKALPAPIEKTISKAKGQPRRPQVYTLPPSREEMTKNQVSLTCLVKGFYPSDIAVEWESNGQPENNYKTTPPVLDSDGSFFLYSKLTVDKSRWQQGNVFSCSVMHGALHNHYTQKYLSLSPGK"}, "B2": {"name": "IgG1-005-E345R/E430G/S440Y (protein)", "chain": "ASTKGPSVFPLAPSSKSTSGGTAALGCLVKDYFPEPVTVSWNSGALTSGVHTFPAVLQSSGLYSLSSVVTVPSSSLGTQTYICNVNHKPSNTKVDKRVEPKSCDKTHTCPPCPAPELLGGPSVFLFPPKPKDTLMISRTPEVTCVVVDVSHEDPEVKFNWYVDGVEVHNAKTKPREEQYNSTYRVVSVLTVLHQDWLNGKEYKCKVSNKALPAPIEKTISKAKGQPRRPQVYTLPPSREEMTKNQVSLTCLVKGFYPSDIAVEWESNGQPENNYKTTPPVLDSDGSFFLYSKLTVDKSRWQQGNVFSCSVMHGALHNHYTQKYLSLSPGK"}, "B3": {"name": "IgG1-M1-RGY (C. albicans mannan antibody M1g1 with E345R/E430G/S440Y) (protein)", "chain": "ASTKGPSVFPLAPSSKSTSGGTAALGCLVKDYFPEPVTVSWNSGALTSGVHTFPAVLQSSGLYSLSSVVTVPSSSLGTQTYICNVNHKPSNTKVDKRVEPKSCDKTHTCPPCPAPELLGGPSVFLFPPKPKDTLMISRTPEVTCVVVDVSHEDPEVKFNWYVDGVEVHNAKTKPREEQYNSTYRVVSVLTVLHQDWLNGKEYKCKVSNKALPAPIEKTISKAKGQPRRPQVYTLPPSREEMTKNQVSLTCLVKGFYPSDIAVEWESNGQPENNYKTTPPVLDSDGSFFLYSKLTVDKSRWQQGNVFSCSVMHGALHNHYTQKYLSLSPGK"}, "B4": {"name": "IgG1-005-E345R/E430G/S440K (protein)", "chain": "ASTKGPSVFPLAPSSKSTSGGTAALGCLVKDYFPEPVTVSWNSGALTSGVHTFPAVLQSSGLYSLSSVVTVPSSSLGTQTYICNVNHKPSNTKVDKRVEPKSCDKTHTCPPCPAPELLGGPSVFLFPPKPKDTLMISRTPEVTCVVVDVSHEDPEVKFNWYVDGVEVHNAKTKPREEQYNSTYRVVSVLTVLHQDWLNGKEYKCKVSNKALPAPIEKTISKAKGQPRRPQVYTLPPSREEMTKNQVSLTCLVKGFYPSDIAVEWESNGQPENNYKTTPPVLDSDGSFFLYSKLTVDKSRWQQGNVFSCSVMHGALHNHYTQKKLSLSPGK"}, "B5": {"name": "IgG1-005-E345R/E430G/Y436I/S440K (protein)", "chain": "ASTKGPSVFPLAPSSKSTSGGTAALGCLVKDYFPEPVTVSWNSGALTSGVHTFPAVLQSSGLYSLSSVVTVPSSSLGTQTYICNVNHKPSNTKVDKRVEPKSCDKTHTCPPCPAPELLGGPSVFLFPPKPKDTLMISRTPEVTCVVVDVSHEDPEVKFNWYVDGVEVHNAKTKPREEQYNSTYRVVSVLTVLHQDWLNGKEYKCKVSNKALPAPIEKTISKAKGQPRRPQVYTLPPSREEMTKNQVSLTCLVKGFYPSDIAVEWESNGQPENNYKTTPPVLDSDGSFFLYSKLTVDKSRWQQGNVFSCSVMHGALHNHITQKKLSLSPGK"}, "B6": {"name": "IgG1-005-E345R/E430G/K439E/S440Y (protein)", "chain": "ASTKGPSVFPLAPSSKSTSGGTAALGCLVKDYFPEPVTVSWNSGALTSGVHTFPAVLQSSGLYSLSSVVTVPSSSLGTQTYICNVNHKPSNTKVDKRVEPKSCDKTHTCPPCPAPELLGGPSVFLFPPKPKDTLMISRTPEVTCVVVDVSHEDPEVKFNWYVDGVEVHNAKTKPREEQYNSTYRVVSVLTVLHQDWLNGKEYKCKVSNKALPAPIEKTISKAKGQPRRPQVYTLPPSREEMTKNQVSLTCLVKGFYPSDIAVEWESNGQPENNYKTTPPVLDSDGSFFLYSKLTVDKSRWQQGNVFSCSVMHGALHNHYTQEYLSLSPGK"}}, "key": {"[1]": {"assay": "HP-SEC as in Example 20, fraction of peak area; Fc:Fc self-oligomerization"}, "[2]": {"assay": "HP-SEC as in Example 20; Fc:Fc self-oligomerization"}, "[3]": {"assay": "HP-SEC, PBS pH 7.4 as mobile phase; Fc:Fc self-oligomerization"}, "[4]": {"assay": "HP-SEC, 0.15 M NaCl/0.1 M citrate pH 5.0; Fc:Fc self-oligomerization"}, "[5]": {"assay": "HP-SEC, 0.15 M NaCl/0.1 M citrate pH 6.8; Fc:Fc self-oligomerization"}, "[6]": {"assay": "HP-SEC, 0.1 M Na2SO4/0.1 M sodium phosphate pH 6.8; Fc:Fc self-oligomerization"}, "[7]": {"assay": "HP-SEC, 0.1 M Na2SO4/0.1 M sodium phosphate pH 6.8 (Example 23); Fc:Fc self-oligomerization"}}}
{"protein": "B1", "values": [{"measurement": "fraction monomers (HP-SEC)", "setting": "[1]", "value": "approximately 28% monomers"}, {"measurement": "fraction oligomers (HP-SEC)", "setting": "[1]", "value": "72% oligomers distributed over multiple states"}]}
{"protein": "B2", "values": [{"measurement": "% multimeric (HP-SEC)", "setting": "[2]", "value": "IgG1-005-RGY (79.2% multimeric)"}, {"measurement": "% multimers (HP-SEC)", "setting": "[3]", "value": "IgG1-005-RGY (84% multimers)"}, {"measurement": "fraction monomeric species (HP-SEC)", "setting": "[4]", "value": ">99% of the protein eluting as a monomeric species"}, {"measurement": "fraction multimer (HP-SEC)", "setting": "[4]", "value": "The fraction multimer dropped to less than 1%"}, {"measurement": "oligomerization (HP-SEC)", "setting": "[5]", "value": "in citrate pH 6.8 the antibody displayed 84% oligomerization"}, {"measurement": "fraction monomeric species (HP-SEC)", "setting": "[6]", "value": "21% of the population eluted in a peak observed at the expected elution time for a monomeric species"}, {"measurement": "fraction oligomer (HP-SEC)", "setting": "[6]", "value": "a large fraction oligomer which was estimated at 79%"}, {"measurement": "fraction monomeric species (HP-SEC)", "setting": "[7]", "value": "23% of the population eluted as a monomeric species"}, {"measurement": "fraction oligomer (HP-SEC)", "setting": "[7]", "value": "a fraction oligomer of 77%"}]}
{"protein": "B3", "values": [{"measurement": "fraction oligomer (HP-SEC)", "setting": "[2]", "value": "IgG1-M1-RGY (74.5%)"}]}
{"protein": "B4", "values": [{"measurement": "% multimers (HP-SEC)", "setting": "[3]", "value": "IgG1-005-RGK (2.2% multimers)"}]}
{"protein": "B5", "values": [{"measurement": "% multimers (HP-SEC)", "setting": "[3]", "value": "IgG1-005-RGIK (1.8% multimers)"}]}
{"protein": "B6", "values": [{"measurement": "% multimers (HP-SEC)", "setting": "[3]", "value": "IgG1-005-RGEY (2.7% multimers)"}]}
